The source of these data is the supplement of paper PMC5998384.

Data set [1] deals with HeLa Kyoto. Description: solubility in G1/S (NP-40 vs SDS abundance) (log2 ratio); higher = more soluble. The following applies: cell cycle stage: G1/S.
In data set [2] the test system is HeLa Kyoto. Description: solubility change mitosis vs G1/S (difference of NP-40 vs SDS log2 ratios) (log2 ratio difference); higher = more soluble in mitosis.
Data set [3] deals with HeLa Kyoto. Description: melting temperature (median over replicates), in situ; higher = more thermally stable.
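Wherever melting temperature (median over replicates), in situ is given: HeLa Kyoto cells synchronized by double thymidine or nocodazole block, proteins quantified by TMT10plex mass spectrometry, three independent biological replicates.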
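Wherever solubility change mitosis vs G1/S (difference of NP-40 vs SDS log2 ratios) is given: synchronized HeLa Kyoto cells (double thymidine block for G1/S, nocodazole release for mitosis), protein amounts in NP-40 versus SDS lysates quantified by mass spectrometry, three biological replicates.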
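Wherever solubility in G1/S (NP-40 vs SDS abundance) is given: HeLa Kyoto cells arrested at G1/S by double thymidine block, proteins quantified by TMT10plex mass spectrometry in mild NP-40 versus SDS extracts, three biological replicates.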

For the sequence “MNGEEEFFDAVTGFDSDNSSGEFSEANQKVTGMIDLDTSKNNRIGKTGERPSQENGIQKHRTSLPAPMFSRSDFSVWTILKKCVGLELSKITMPIAFNEPLSFLQRITEYMEHVYLIHRASCQPQPLERMQSVAAFAVSAVASQWERTGKPFNPLLGETYELIREDLGFRFISEQVSHHPPISAFHSEGLNHDFLFHGSIYPKLKFWGKSVEAEPRGTITLELLKHNEAYTWTNPTCCVHNVIIGKLWIEQYGTVEILNHRTGHKCVLHFKPCGLFGKELHKVEGHIQDKNKKKLFMIYGKWTECLWGIDPVSYESFKKQERRGDHLRKAKLDEDSGKADSDVADDVPVAQETVQVIPGSKLLWRINTRPPNSAQMYNFTSFTVSLNELETGMEKTLPPTDCRLRPDIRGMENGNMDLASQEKERLEEKQREARRERAKEEAEWQTRWFYPGNNPYTGTPDWLYAGDYFERNFSDCPDIY [OSBPL2]”, the “solubility in G1/S (log2)” value in data set [1] was -0.0421. Besides, in data set [2], the “solubility change mitosis (log2)” value was -0.108. Also, the figures for the melting temperature in data set [3] (cell cycle stage: G1/S) and in data set [3] (cell cycle stage: mitosis) were 48.1 °C and 48.6 °C, respectively.

On to “MAAPSEVAAIAPGEGDGGGGGFGSWLDGRLEALGVDRAVYGAYILGILQEEEEEEKLDALQGILSAFLEEDSLLNICKEIVERWSETQNVVTKVKKEDEVQAIATLIEKQAQIVVKPRMVSEEEKQRKAALLAQYADVTDEEDEADEKDDSGATTMNIGSDKLLFRNTNVEDVLNARKLERDSLRDESQRKKEQDKLQRERDKLAKQERKEKEKKRTQRGERKR [CCDC43]”, for which the “solubility in G1/S (log2)” value in data set [1] stood at 0.483. The “solubility change mitosis (log2)” value in data set [2] worked out at 0.216. For the same sequence, the figures for the melting temperature in data set [3] (cell cycle stage: G1/S) and in data set [3] (cell cycle stage: mitosis) were 53.8 °C and 53.7 °C, respectively.

For “MAAAATMAAAARELVLRAGTSDMEEEEGPLAGGPGLQEPLQLGELDITSDEFILDEVDVHIQANLEDELVKEALKTGVDLRHYSKQVELELQQIEQKSIRDYIQESENIASLHNQITACDAVLERMEQMLGAFQSDLSSISSEIRTLQEQSGAMNIRLRNRQAVRGKLGELVDGLVVPSALVTAILEAPVTEPRFLEQLQELDAKAAAVREQEARGTAACADVRGVLDRLRVKAVTKIREFILQKIYSFRKPMTNYQIPQTALLKYRFFYQFLLGNERATAKEIRDEYVETLSKIYLSYYRSYLGRLMKVQYEEVAEKDDLMGVEDTAKKGFFSKPSLRSRNTIFTLGTRGSVISPTELEAPILVPHTAQRGEQRYPFEALFRSQHYALLDNSCREYLFICEFFVVSGPAAHDLFHAVMGRTLSMTLKHLDSYLADCYDAIAVFLCIHIVLRFRNIAAKRDVPALDRYWEQVLALLWPRFELILEMNVQSVRSTDPQRLGGLDTRPHYITRRYAEFSSALVSINQTIPNERTMQLLGQLQVEVENFVLRVAAEFSSRKEQLVFLINNYDMMLGVLMERAADDSKEVESFQQLLNARTQEFIEELLSPPFGGLVAFVKEAEALIERGQAERLRGEEARVTQLIRGFGSSWKSSVESLSQDVMRSFTNFRNGTSIIQGALTQLIQLYHRFHRVLSQPQLRALPARAELINIHHLMVELKKHKPNF [VPS52]”, the “solubility in G1/S (log2)” value in data set [1] was -0.194. Also, the “solubility change mitosis (log2)” value in data set [2] is -0.138. Moreover, the figures for the melting temperature in data set [3] (cell cycle stage: G1/S) and in data set [3] (cell cycle stage: mitosis) were 51.5 °C and 50.4 °C, respectively.

On to “MSGIKRTIKETDPDYEDVSVALPNKRHKAIENSARDAAVQKIETIIKEQFALEMKNKEHEIEVIDQRLIEARRMMDKLRACIVANYYASAGLLKVSEGSKTCDTMVFNHPAIKKFLESPSRSSSPANQRAETPSANHSESDSLSQHNDFLSDKDNNSNMDIEERLSNNMEQRPSRNTGRDTSRITGSHKTEQRNADLTDETSRLFVKKTIVVGNVSKYIPPDKREENDQSTHKWMVYVRGSRREPSINHFVKKVWFFLHPSYKPNDLVEVREPPFHLTRRGWGEFPVRVQVHFKDSQNKRIDIIHNLKLDRTYTGLQTLGAETVVDVELHRHSLGEDCIYPQSSESDISDAPPSLPLTIPAPVKASSPIKQSHEPVPDTSVEKGFPASTEAERHTPFYALPSSLERTPTKMTTSQKVTFCSHGNSAFQPIASSCKIVPQSQVPNPESPGKSFQPITMSCKIVSGSPISTPSPSPLPRTPTSTPVHVKQGTAGSVINNPYVIMDKQPGQVIGATTPSTGSPTNKISTASQVSQGTGSPVPKIHGSSFVTSTVKQEDSLFASMPPLCPIGSHPKVQSPKPITGGLGAFTKVIIKQEPGEAPHVPATGAASQSPLPQYVTVKGGHMIAVSPQKQVITPGEGIAQSAKVQPSKVVGVPVGSALPSTVKQAVAISGGQILVAKASSSVSKAVGPKQVVTQGVAKAIVSGGGGTIVAQPVQTLTKAQVTAAGPQKSGSQGSVMATLQLPATNLANLANLPPGTKLYLTTNSKNPSGKGKLLLIPQGAILRATNNANLQSGSAASGGSGAGGGGGGGGGGGSGSGGGGSTGGGGGTAGGGTQSTAGPGGISQHLTYTSYILKQTPQGTFLVGQPSPQTSGKQLTTGSVVQGTLGVSTSSAQGQQTLKVISGQKTTLFTQAAHGGQASLMKISDSTLKTVPATSQLSKPGTTMLRVAGGVITTATSPAVALSANGPAQQSEGMAPVSSSTVSSVTKTSGQQQVCVSQATVGTCKAATPTVVSATSLVPTPNPISGKATVSGLLKIHSSQSSPQQAVLTIPSQLKPLSVNTSGGVQTILMPVNKVVQSFSTSKPPAILPVAAPTPVVPSSAPAAVAKVKTEPETPGPSCLSQEGQTAVKTEESSELGNYVIKIDHLETIQQLLTAVVKKIPLITAKSEDASCFSAKSVEQYYGWNIGKRRAAEWQRAMTMRKVLQEILEKNPRFHHLTPLKTKHIAHWCRCHGYTPPDPESLRNDGDSIEDVLTQIDSEPECPSSFSSADNLCRKLEDLQQFQKREPENEEEVDILSLSEPVKINIKKEQEEKQEEVKFYLPPTPGSEFIGDVTQKIGITLQPVALHRNVYASVVEDMILKATEQLVNDILRQALAVGYQTASHNRIPKEITVSNIHQAICNIPFLDFLTNKHMGILNEDQ [YEATS2]”, for which the “solubility in G1/S (log2)” value in data set [1] is -0.495. The “solubility change mitosis (log2)” value in data set [2] was 0.161. The melting temperature in data set [3] (cell cycle stage: G1/S) stood at 51.4 °C; in data set [3] (cell cycle stage: mitosis) it was 49.7 °C.
